# Experimental data published in patent US20210140973A1 (NITTO BOSEKI, published 2021).
# B1: MaI4-08-produced antibody (antibody, IgG1, V domains shown)
# VH: EVQLQQSGPELVKPGTSVKMSCKASGYIFTSYILHWVKQKPGQGLEWIAYINPYNDGTKYKEKFKGKGTLTSDKSSSTAYMELSSLTSEDSAVYYCARSGGGYGNYAWFAYWGPGTLVTVST
# VL: DIQMTQSPSSLSASLGERVSLTCRASQDIGSSLNWLQQEPDGTIKRLIYATSSLDSGVPKRFSGSRSGSDYSLTISSLESEDFVDYYCLQYASYPPTFGAGTKLELK
# notes: Purified on protein G from hybridoma culture supernatant; POD-labelled for the Western blots
# Key:
# [1] = target: T1, human IgG4 purified from human serum (human); experiment: SPR (Biacore), IgG4 immobilized on chip by amino coupling, antibody as analyte
# T1 construct: also called IgG4 antigen; human IgG4-sensitized latex
# T1 sequence (constant, as listed by the source limits assumed): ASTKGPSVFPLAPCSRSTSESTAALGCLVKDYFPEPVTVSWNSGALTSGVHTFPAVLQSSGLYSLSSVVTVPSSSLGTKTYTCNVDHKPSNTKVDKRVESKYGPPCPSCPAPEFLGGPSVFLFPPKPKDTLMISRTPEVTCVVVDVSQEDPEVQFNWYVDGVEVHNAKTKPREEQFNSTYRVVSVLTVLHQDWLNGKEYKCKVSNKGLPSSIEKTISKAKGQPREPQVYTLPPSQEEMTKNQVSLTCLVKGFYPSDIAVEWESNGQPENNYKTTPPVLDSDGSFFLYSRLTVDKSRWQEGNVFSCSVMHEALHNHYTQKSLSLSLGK
# Protocol: MaI4-08 and MaI4-09-produced antibodies, and, as a control, MaI4-05-produced antibody and 1 mg/mL of HP6025 were adjusted to 1 mg/mL. In addition, 1 mg/mL of IgG4 was prepared from the one purified from human serum. According to the protocol of Sumika Chemical Analysis Service, Ltd., IgG4 was immobilized onto a chip by an amino coupling method, and a sensorgram was obtained by a Biacore model. The obtained binding rate constant (kₐ), dissociation rate constant (kd), and dissociation constant (KD) were as shown in Table 11.
# [2] = target: T2, Myeloma human IgG4 (EMD Millipore) (human); experiment: latex agglutination inhibition; 3000 mg/dL myeloma protein as free sample against IgG4-sensitized latex, read on the IgG4 calibration curve
# T2 construct: Bought myeloma protein
# Protocol: (§1) In a case where the MaI4-08-produced antibody or the MaI4-09-produced antibody was used as an anti-human IgG4 mouse monoclonal antibody in the first reagent, specificity to human IgG4 was evaluated. As a sample, Myeloma human IgG4 solution (EMD Millipore) adjusted to 3000 mg/dL was used. In addition, as control samples, Myeloma human IgG1 solution (EMD Millipore), Myeloma human IgG2 solution (EMD Millipore), and Myeloma human IgG3 solution (Sigma-Aldrich Co. LLC) prepared similarly to the above were used. A saline solution was used as a blank sample. For the measurement of human IgG4 concentrations, 120 μL of the first reagent and 120 μL of the second reagent were reacted with 3 μL of a sample using Hitachi type 7180 automatic analyzer, and change amount of absorbance in the range of photometric points of 18 to 28 (corresponding to 1 minute to 4 minutes after addition of R2) was measured at a main wavelength of 570 nm and a complementary wavelength of 800 nm by a two-point end method (n=2). A calibration curve was created from the results of Table 8 and the human IgG4 concentration in a sample was calculated therefrom.
# [3] = target: T3, Myeloma human IgG3 (Sigma-Aldrich Co. LLC) (human); experiment: as above
# T3 construct: Bought myeloma protein
# T3 sequence (constant, as listed by the source limits assumed): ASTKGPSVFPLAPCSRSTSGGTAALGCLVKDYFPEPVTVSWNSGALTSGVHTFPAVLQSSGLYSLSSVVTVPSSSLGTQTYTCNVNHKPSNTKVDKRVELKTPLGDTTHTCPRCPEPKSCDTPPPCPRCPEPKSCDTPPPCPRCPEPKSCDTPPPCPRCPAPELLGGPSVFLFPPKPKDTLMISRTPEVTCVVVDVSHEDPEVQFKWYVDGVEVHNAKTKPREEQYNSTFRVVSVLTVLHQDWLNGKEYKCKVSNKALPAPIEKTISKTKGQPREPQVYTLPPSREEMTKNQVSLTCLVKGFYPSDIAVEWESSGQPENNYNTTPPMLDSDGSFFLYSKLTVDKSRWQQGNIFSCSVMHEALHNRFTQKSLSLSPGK
# Protocol: as §1
# [4] = target: T4, Myeloma human IgG1 (EMD Millipore) (human); experiment: as above
# T4 construct: Bought myeloma protein
# T4 sequence (constant, as listed by the source limits assumed): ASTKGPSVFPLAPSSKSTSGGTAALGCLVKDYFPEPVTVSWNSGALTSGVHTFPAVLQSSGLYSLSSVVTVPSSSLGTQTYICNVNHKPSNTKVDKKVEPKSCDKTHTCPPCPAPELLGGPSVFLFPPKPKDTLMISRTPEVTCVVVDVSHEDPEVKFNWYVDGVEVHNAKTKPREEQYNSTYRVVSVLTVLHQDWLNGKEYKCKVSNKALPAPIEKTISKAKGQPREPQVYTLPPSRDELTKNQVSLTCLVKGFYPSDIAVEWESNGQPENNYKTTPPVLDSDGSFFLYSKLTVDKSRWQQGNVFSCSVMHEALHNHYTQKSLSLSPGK
# Protocol: as §1
# [5] = target: T5, Myeloma human IgG2 (EMD Millipore) (human); experiment: as above
# T5 construct: Bought myeloma protein
# T5 sequence (constant, as listed by the source limits assumed): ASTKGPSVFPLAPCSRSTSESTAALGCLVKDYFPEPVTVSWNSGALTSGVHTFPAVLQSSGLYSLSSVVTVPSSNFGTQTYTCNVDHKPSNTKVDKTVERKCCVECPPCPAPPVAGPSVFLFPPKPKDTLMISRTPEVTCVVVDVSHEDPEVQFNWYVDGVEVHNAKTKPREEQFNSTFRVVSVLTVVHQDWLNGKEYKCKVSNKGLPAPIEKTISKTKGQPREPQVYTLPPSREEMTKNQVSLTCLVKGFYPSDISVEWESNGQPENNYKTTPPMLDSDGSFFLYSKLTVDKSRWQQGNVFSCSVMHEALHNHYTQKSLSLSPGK
# Protocol: as §1
# [6] = target: T2, Myeloma human IgG4 (EMD Millipore); experiment: indirect ELISA, antigen coated 1 µg/mL, antibody 1 µg/mL; no-antigen well 0.042
# Protocol: (§2) Myeloma human IgA1 (Abcam), Myeloma human IgA2 (Abcam), Myeloma human IgD (Abcam), Myeloma human IgE (Abcam), Myeloma human IgM (Abcam), Myeloma human IgG1 (EMD Millipore), Myeloma human IgG2 (EMD Millipore), Myeloma human IgG3 (Sigma-Aldrich Co. LLC), and Myeloma human IgG4 (EMD Millipore) were adjusted to 1 μg/mL with PBS(−). The adjusted samples were added to a 96-well plate (Thermo Fisher Scientific) by 100 μL, respectively. The plate was shaken by a shaker under the condition of 700 rpm and 25.0° C. for 1 hour. The solutions were discarded, the plate was cleaned with 300 μL of PBST 3 times, 100 μL of a blocking buffer solution was added to each well, and then the plate was stored at 4° C. one night or more. Similarly, after cleaning with PBST, the MaI4-08 and MaI4-09-produced antibodies were adjusted to 1 μg/mL with an antibody dilute buffer solution and then added to each well by 100 μL, and the plate was shaken under the same condition as mentioned above. Similarly, after cleaning with PBST, a HRP labeled anti-mouse IgG antibody (Abcam) diluted 4000-fold with an antibody dilute buffer solution was added to each well by 100 μL, and the plate was shaken under the same condition as mentioned above. Similarly, after cleaning with PBST, 100 μL of SureBlue (KPL) was added. 5 or 3 minutes later, 100 μL of 0.5 mol/L sulfuric acid (Wako Pure Chemical Corporation) was added to each of MaI4-08 and MaI4-09. Absorbance at a wavelength of 450 nm was measured with a microplate reader (BIO-RAD Laboratories, Inc.). As a result, a strong signal was given to Myeloma human IgG4 as compared to the other samples (Tables 2 and 3, and FIGS. 2 and 3).
# [7] = target: T3, Myeloma human IgG3 (Sigma-Aldrich Co. …); experiment: as above
# Protocol: as §2
# [8] = target: Myeloma human IgA2 (Abcam) (human, UniProt P01877-1 1-340); experiment: as above
# Sequence of Myeloma human IgA2 (Abcam) (P01877 other isoform, or with tags, fused parts or gaps): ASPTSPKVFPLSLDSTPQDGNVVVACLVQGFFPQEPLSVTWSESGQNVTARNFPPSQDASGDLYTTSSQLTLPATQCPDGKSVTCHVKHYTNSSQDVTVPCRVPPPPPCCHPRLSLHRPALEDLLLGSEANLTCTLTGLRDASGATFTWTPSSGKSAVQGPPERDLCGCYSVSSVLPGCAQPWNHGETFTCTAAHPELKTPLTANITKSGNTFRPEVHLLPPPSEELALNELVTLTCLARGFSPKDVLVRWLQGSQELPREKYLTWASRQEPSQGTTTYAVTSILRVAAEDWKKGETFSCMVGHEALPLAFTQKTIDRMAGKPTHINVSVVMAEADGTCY
# Protocol: as §2
# [9] = target: T4, Myeloma human IgG1 (EMD Millipore); experiment: as above
# Protocol: as §2
# [10] = target: Myeloma human IgM (Abcam) (human, UniProt P01871-1 1-453); experiment: as above
# Sequence of Myeloma human IgM (Abcam) (P01871 other isoform, or with tags, fused parts or gaps): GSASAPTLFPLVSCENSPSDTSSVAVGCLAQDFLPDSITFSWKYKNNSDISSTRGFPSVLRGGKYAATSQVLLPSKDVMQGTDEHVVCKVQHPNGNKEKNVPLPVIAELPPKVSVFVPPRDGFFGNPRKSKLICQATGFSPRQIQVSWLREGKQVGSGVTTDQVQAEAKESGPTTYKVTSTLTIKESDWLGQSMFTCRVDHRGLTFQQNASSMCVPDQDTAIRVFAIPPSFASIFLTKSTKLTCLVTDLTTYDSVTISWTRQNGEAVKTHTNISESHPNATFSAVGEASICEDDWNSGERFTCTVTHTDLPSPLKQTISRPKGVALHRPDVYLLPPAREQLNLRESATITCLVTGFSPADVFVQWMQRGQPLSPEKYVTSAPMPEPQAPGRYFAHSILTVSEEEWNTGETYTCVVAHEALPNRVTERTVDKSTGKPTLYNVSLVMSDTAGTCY
# Protocol: as §2
# [11] = target: Myeloma human IgD (Abcam) (human, UniProt P01880-1 1-384); experiment: as above
# Sequence of Myeloma human IgD (Abcam) (P01880 other isoform, or with tags, fused parts or gaps): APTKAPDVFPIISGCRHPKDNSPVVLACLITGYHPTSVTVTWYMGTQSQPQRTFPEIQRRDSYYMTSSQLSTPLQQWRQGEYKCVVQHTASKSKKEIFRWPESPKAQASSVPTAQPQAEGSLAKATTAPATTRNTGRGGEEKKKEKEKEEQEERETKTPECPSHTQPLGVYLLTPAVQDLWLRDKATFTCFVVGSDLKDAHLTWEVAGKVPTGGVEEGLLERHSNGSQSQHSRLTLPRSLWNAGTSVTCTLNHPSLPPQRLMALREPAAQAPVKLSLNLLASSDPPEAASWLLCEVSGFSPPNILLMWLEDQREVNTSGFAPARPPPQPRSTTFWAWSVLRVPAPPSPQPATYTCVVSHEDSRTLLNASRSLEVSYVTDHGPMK
# Protocol: as §2
# [12] = target: Myeloma human IgA1 (Abcam) (human, UniProt P01876-1 1-353); experiment: as above
# Sequence of Myeloma human IgA1 (Abcam) (P01876 other isoform, or with tags, fused parts or gaps): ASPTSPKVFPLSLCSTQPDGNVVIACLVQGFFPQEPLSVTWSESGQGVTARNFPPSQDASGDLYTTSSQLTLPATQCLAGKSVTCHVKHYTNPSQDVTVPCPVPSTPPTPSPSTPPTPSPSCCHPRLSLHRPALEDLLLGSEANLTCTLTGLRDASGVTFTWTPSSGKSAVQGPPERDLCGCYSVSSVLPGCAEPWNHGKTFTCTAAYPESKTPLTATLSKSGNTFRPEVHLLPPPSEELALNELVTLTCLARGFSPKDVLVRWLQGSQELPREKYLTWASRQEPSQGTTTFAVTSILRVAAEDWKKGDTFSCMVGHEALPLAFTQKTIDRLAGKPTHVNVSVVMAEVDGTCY
# Protocol: as §2
# [13] = target: T5, Myeloma human IgG2 (EMD Millipore); experiment: as above
# Protocol: as §2
# [14] = target: Myeloma human IgE (Abcam) (human, UniProt P01854-1 1-428); experiment: as above
# Sequence of Myeloma human IgE (Abcam) (P01854 other isoform, or with tags, fused parts or gaps): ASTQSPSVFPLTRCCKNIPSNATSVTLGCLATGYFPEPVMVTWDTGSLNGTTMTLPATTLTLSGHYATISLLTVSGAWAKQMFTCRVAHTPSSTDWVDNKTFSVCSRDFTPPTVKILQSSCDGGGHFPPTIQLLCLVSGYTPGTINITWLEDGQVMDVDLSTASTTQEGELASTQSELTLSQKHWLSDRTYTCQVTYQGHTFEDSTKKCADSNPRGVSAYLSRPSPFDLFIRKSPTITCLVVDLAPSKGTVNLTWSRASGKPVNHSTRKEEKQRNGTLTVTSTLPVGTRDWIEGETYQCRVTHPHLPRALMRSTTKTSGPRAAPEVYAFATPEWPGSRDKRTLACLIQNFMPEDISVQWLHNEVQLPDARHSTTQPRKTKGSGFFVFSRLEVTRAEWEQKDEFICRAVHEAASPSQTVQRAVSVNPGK
# Protocol: as §2
binder,measurement,setting,value
B1,Kd,[1],0.406 nM
same,koff,[1],0.000223 s⁻¹
same,kon,[1],549000 M⁻¹ s⁻¹
same,Measured value (apparent human IgG4 concentration),[2],1090 mg/dL
same,Measured value (apparent human IgG4 concentration),[3],4.1 mg/dL
same,Measured value (apparent human IgG4 concentration),[4],10.1 mg/dL
same,Measured value (apparent human IgG4 concentration),[5],12.8 mg/dL
same,absorbance at 450 nm,[6],2.04
same,absorbance at 450 nm,[7],0.044
same,absorbance at 450 nm,[8],0.043
same,absorbance at 450 nm,[9],0.048
same,absorbance at 450 nm,[10],0.042
same,absorbance at 450 nm,[11],0.042
same,absorbance at 450 nm,[12],0.043
same,absorbance at 450 nm,[13],0.047
same,absorbance at 450 nm,[14],0.041
